The values below come from US9314499.

The assay deals with tissue plasminogen activator (human) (UniProt P00750). Nature of the assay: cell-based or functional assay.
Sequence of UniProt P00750 (P00750 36-562 limits assumed): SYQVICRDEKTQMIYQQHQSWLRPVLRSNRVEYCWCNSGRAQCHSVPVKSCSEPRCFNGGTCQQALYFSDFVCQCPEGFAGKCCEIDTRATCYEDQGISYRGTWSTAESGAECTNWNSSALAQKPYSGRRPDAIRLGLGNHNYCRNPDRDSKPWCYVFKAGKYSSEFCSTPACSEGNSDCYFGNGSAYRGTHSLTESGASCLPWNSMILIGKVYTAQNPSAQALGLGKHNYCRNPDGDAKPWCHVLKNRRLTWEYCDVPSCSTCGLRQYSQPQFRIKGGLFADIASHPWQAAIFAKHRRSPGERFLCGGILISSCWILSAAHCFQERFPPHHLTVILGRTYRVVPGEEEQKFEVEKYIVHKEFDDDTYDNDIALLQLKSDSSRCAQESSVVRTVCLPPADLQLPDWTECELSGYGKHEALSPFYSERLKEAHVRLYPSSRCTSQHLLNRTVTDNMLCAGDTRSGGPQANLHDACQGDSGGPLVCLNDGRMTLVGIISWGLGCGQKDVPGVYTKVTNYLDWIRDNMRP

“Histidine-tagged recombinant human Annexin A2 (from UniProt Q3ZCQ2 1-193)” showed an in vitro plasmin-generating capability of tPA (plasmin activity assay) of 4 fold.
